# From patent publication US20250144186A1, “NOVEL THERAPEUTIC USES OF GARDNERELLA ENDOLYSINS” (priority 2022, published 2025)
# Where “and” joins values, the source holds several entries; their conditions need not be identical. Identical values can stand only once. Like-named read-outs stand apart in the source and are kept apart here.
# What was measured:
# [1] = system: MDZ or MDZ-OH passaged Gardnerella strains grown as biofilm; assay: MBEC on biofilms of the six passaged strains, summary; assay type: cell-based, Gardnerella spp.; settings: for Susceptibility of MDZ-passaged strains grown as biofilm (FIG. 4): 72 h pre-formed biofilms treated for 24 h; for MBEC, range over passaged strains: six strains passaged on MDZ or MDZ-OH, pre-formed biofilms, 24 h treatment
# Method: (§1) Gardnerella spp. (see figures for strain specification) was resuspended in brain heart infusion broth supplemented with 2% (w/v) gelatin, 0.5% yeast extract (w/v), 0.1% starch (w/v) and 0.25% glucose (w/v) (sBHIG). Passaged strains were resuspended in unbuffered NYCB supplemented with 1% glucose (w/v) (sNYCB). The OD600 was set to 0.1 (approx. 10^7-10^8 CFU/mL) and the cell suspension was diluted 1:10 in growth medium as input for biofilm formation. A total of 200 μL of the respective bacterial suspensions was added to 96-well flat bottom plates (tissue-culture treated, Sigma-Aldrich). The biofilms were grown under anaerobic conditions at 37° C. for 40 to 72 hours, depending on the isolate. Subsequently, the supernatant was removed, and the biofilm was treated with antimicrobials dissolved in sBHIG (at pH 5 for treatment with PM-477 (H2B10), and unbuffered for treatment with antibiotics) in 100 μL and incubated anaerobically at 37° C. for another 24 hours. After the treatment, the biofilms were washed twice with 200 μL 1x PBS and dissolved by vigorous pipetting (40x up and down). Serial dilutions of the dissolved cells were spotted on chocolate agar plates. The plates were incubated anaerobically for two to three days and the minimum biofilm eradication concentration (MBEC) of the endolysin or the antibiotics in use were calculated.
# passaged G. swidsinskii = assay: MIC on strains passaged with MDZ-OH; assay type: cell-based, Gardnerella swidsinskii; settings: for MIC: Gardnerella swidsinskii, 48 h; for MIC passaged: 48 h incubation
# Method: (§2) The minimum inhibitory concentration (MIC), which is a standard measure of the activity of antimicrobials, was determined according to the Clinical and Laboratory Standards Institute protocol (2018) Methods for Antimicrobial Susceptibility Testing of Anaerobic Bacteria (Carpenter et al., 2018). […] Controls for growth in the absence of antimicrobials were also included. OD600 was recorded by a microplate reader (Tecan, Grodig, Austria) after incubation at 37° C. for 48 h or, for some fast-growing strains, after incubation for 24 h. Absence of growth was defined as OD600≤0.14. […] MIC readout and MBC99.5 spotting were performed after 72 h incubation for H2B10B11. MBC99.5 is the minimum concentration of an antibacterial agent that results in bacterial death of all cells in suspension up to a defined limit of detection, resulting in killing of at least 99.5% of bacteria.
# (§3) The final volume of the reaction was 100 µL and the reactions were performed in triplicate in 384-well plates. The OD600 was measured using a microplate reader (Tecan, Grodig, Austria) to generate timepoint 0 h baseline values. The reactions were incubated anaerobically for 24 h, then the OD600 was measured again, and the MIC was measured as the lowest concentration with OD600<0.14. […] This process was repeated for a maximum of 25 rounds. In each round, the input CFU/mL was determined by quantitative plating.
# (§4) The susceptibility of Gardnerella strains before and after 8 to 9-times passaging with sub-MIC concentrations of MZD or MDZ-OH is shown in Table 4 below. All MICs determined after 48 h of incubation.
# All Gardnerella = assay: MIC assessment in suspension, panel of 22 strains; assay type: cell-based, Gardnerella spp.
# Method: as §2, with “H2B10B11.” for “H2B10B11. MBC99.5 is the minimum concentration of an antibacterial agent that results in bacterial death of all cells in suspension up to a defined limit of detection, resulting in killing of at least 99.5% of bacteria.”
# However, topical intravaginal antibiotic administration is recommended for BV therapy, which allows to reach concentrations of active ingredients in the mg/mL range. […] Abbreviations: n.d., not determined; SJHB, St. Jan Hospital Bruges.
# MIC90 is defined as the MIC value for 90% of the tested strains. For PM-477 (H2B10), the resistance breakpoint is not defined, therefore a “% resistant” is not defined (n.d.).
# [2] = system: G. vaginalis (ATCC 14018); assay: Bactericidal effect in suspension by quantitative plating, wild type and MDZ-passaged; assay type: cell-based, Gardnerella vaginalis; settings: for reduction of a suspension of 108 CFU/mL: 10 μg/mL, 1 h
# Method: Bacterial suspensions (OD600 of 0.1, corresponding to approximately 10^7-10^8 CFU/mL) were prepared by scraping the cells from confluently grown agar plates and diluting them into NYCB+10% HS, pH 5.5. Reactions were performed in triplicate by mixing ten μl of endolysin (200 μg/mL) with 90 μL bacterial suspension in the wells of a 96-well plate. Ten UL MES buffer without the endolysin was used as a control. […] Tenfold dilution series (10^−1 to 10^−6) of the cell reaction mixtures were prepared in NYCB+10% HS and 2 μL of each dilution were spotted onto Choc agar plates. After anaerobic incubation at 37° C. for 48 h, colonies were counted, CFU/mL calculated, and the log10 reduction compared to MES buffer treated control was determined.
# (§5) All MICs determined after 48 h of incubation.
# [3] = system: passaged G. piotii biofilm; assay: MBEC on biofilms of passaged strains; assay type: cell-based, Gardnerella piotii; settings: G. piotii (UGent 18.01T) passaged with MDZ-OH
# Method: as §1, §5
# [4] = system: passaged G. swidsinskii biofilm; assay: MBEC on biofilms of passaged strains; assay type: cell-based, Gardnerella swidsinskii
# Method: as §1, §5
# passaged G. vaginalis = assay: MIC on strains passaged with MDZ or MDZ-OH; assay type: cell-based, Gardnerella vaginalis; settings: for MIC: Gardnerella vaginalis, 48 h; for MIC passaged: 48 h incubation
# Method: as §2, §3, §4
# G. vaginalis biofilm = assay: MBEC on pre-formed biofilms of ancestor isolates; assay type: cell-based, Gardnerella vaginalis; settings: for Eradication of biofilm-grown cells (FIG. 1): G. vaginalis (ATCC14018), biofilm grown 40 h, treated 24 h
# Method: as §1
# (§6) Gardnerella dominated biofilms covering the human vaginal epithelial cells are now generally considered as a hallmark of BV. Thus, it was tested how effective antibiotics and PM-477 (H2B10) are in penetrating and killing in vitro pre-formed, 40-72 h old biofilms of various Gardnerella strains.
# G. piotii biofilm = assay type: cell-based, Gardnerella piotii
# Method: as §1, §6
# [5] = G. swidsinskii (GS 9838-1T) passaged with MDZ-OH
# [6] = G. swidsinskii (UGent BV 7.1) passaged with MDZ-OH
# [7] = ancestor G. vaginalis UGent FB049, pre-formed biofilm
# [8] = ancestor G. piotii UGent 18.01, pre-formed biofilm
# [9] = ancestor G. piotii UGent 21.28, pre-formed biofilm
molecule,measurement,setting,value
"Cc1ncc([N+](=O)[O-])n1CCO [MDZ, metronidazole]",Susceptibility of MDZ-passaged strains grown as biofilm (FIG. 4),[1],resistant
same,"MBEC, range over passaged strains",[1],> 2048 µg/mL
same,MIC,"passaged G. swidsinskii; read-out: MIC passaged, G. swidsinskii (GS 9838-1T) passaged with MDZ-OH, 48 h incubation",> 512 µg/mL
same,MIC,"passaged G. swidsinskii; read-out: MIC passaged, G. swidsinskii (UGent BV 7.1) passaged with MDZ-OH, 48 h incubation",> 2050 µg/mL
same,N resistant (%),"All Gardnerella; N=22, resistance ≥32 μg/mL MDZ",59% and 60%
same,N resistant,"All Gardnerella; N=22, resistance ≥32 μg/mL MDZ, ≥8 μg/mL CLI",13
same,MIC90,All Gardnerella; N=22 strains,>256 µg/mL
same,MIC90,"All Gardnerella; N=22 strains, read-out: MIC90",> 256 µg/mL
same,reduction compared to the buffer treated control,"[2]; MDZ-passaged G. vaginalis (ATCC 14018), 2 mg/ml, 24 h",2 log
same,loss in viability,"[2]; MDZ-passaged G. vaginalis (ATCC 14018), up to 2 mg/ml, 1 and 5 hours",without any loss in viability
same,MBEC passaged,[3],>2048 µg/mL
same,MBEC passaged,[4]; [5],>2048 µg/mL
same,MBEC passaged,[4]; [6],>2048 µg/mL
same,MIC,"passaged G. vaginalis; read-out: MIC passaged, G. vaginalis (ATCC 14018T) passaged with sub-MIC MDZ, 48 h incubation",> 512 µg/mL
same,MIC,"passaged G. vaginalis; read-out: MIC passaged, G. vaginalis (UGent 09.07) passaged 8 times with MDZ-OH, 48 h incubation",> 2050 µg/mL
same,MIC,"passaged G. vaginalis; read-out: MIC passaged, G. vaginalis (UGent BV50) passaged with MDZ-OH, 48 h incubation",> 2050 µg/mL
same,Eradication of biofilm-grown cells (FIG. 1),G. vaginalis biofilm,can be eradicated
same,MBEC,G. vaginalis biofilm; [7],2 to 8 µg/mL
same,MBEC,G. piotii biofilm; [8],8 µg/mL
same,MBEC,G. piotii biofilm; [9],8 to 32 µg/mL
"PM-477: genetically engineered recombinant Gardnerella-specific endolysin, amino acid sequence SEQ ID NO: 1, His-tag cleaved off (protein, His-tag cleaved off; H2B10) SKRGIDVSEWQGDIDFNAVKASGVEFVIIRAGYGIGCKDKWFEQNYRKAKTCGLDVGAYWYSYANSGFEAAEEAQSCVNMLSGKSFEYPVYFDLEEKSQLNRGRAFCDSLITGFCNKLESCGYYAGFYTSLSTANNLVSAHVRNRYALWIAQWNTHCSYQGSYGLWQYSSSGSVPGVAGRVDMDYAYVDYPSIIKNVGLNGYKNGGSYTAPQISSIDEVAREVINGDWGNGNERKQRLTSAGYDYASVQNKVNELLGVKAYRKSVDELAREVIRGTWGNGSTRKQRLTQAGYDYNAVQKRVNELL",Susceptibility of MDZ-passaged strains grown as biofilm (FIG. 4),[1],susceptible
same,"MBEC, range over passaged strains",[1]; listed as PM-477 (H2B10),1 to 8 µg/mL and 1 to 4 µg/mL
same,MIC passaged,passaged G. swidsinskii; [5],0.06 µg/mL
same,MIC passaged,passaged G. swidsinskii; [6],0.06 µg/mL
same,MIC90,All Gardnerella; N=22 strains,1 µg/mL
same,MIC Range,"All Gardnerella; N=22 strains, listed as PM-477 (H2B10)",<0.03-1^ μg/mL
same,reduction of a suspension of 108 CFU/mL,[2]; MDZ-passaged G. vaginalis (ATCC 14018),2.8 log units
same,reduction of a suspension of 108 CFU/mL,[2]; ancestral G. vaginalis (ATCC 14018),3.0 log units
same,MBEC passaged,[3],<1 µg/mL
same,MBEC passaged,[4]; [5],2 µg/mL
same,MBEC passaged,[4]; [6],2 µg/mL
same,MIC passaged,passaged G. vaginalis; G. vaginalis (ATCC 14018T) passaged with sub-MIC MDZ,0.13 µg/mL
same,MIC passaged,passaged G. vaginalis; G. vaginalis (UGent 09.07) passaged 8 times with MDZ-OH,0.25 µg/mL
same,MIC passaged,passaged G. vaginalis; G. vaginalis (UGent BV50) passaged with MDZ-OH,0.25 µg/mL
same,Eradication of biofilm-grown cells (FIG. 1),G. vaginalis biofilm,can be eradicated
same,MBEC,"G. vaginalis biofilm; ancestor G. vaginalis ATCC14018, pre-formed biofilm, 24 h treatment",32 µg/mL
same,MBEC,"G. vaginalis biofilm; ancestor G. vaginalis UGent 09.07, pre-formed biofilm",16 µg/mL
same,MBEC,"G. vaginalis biofilm; ancestor G. vaginalis UGent BV50, pre-formed biofilm",2 µg/mL
same,MBEC,"G. vaginalis biofilm; ancestor G. vaginalis UGent BV111.5, pre-formed biofilm",8 to 32 µg/mL
same,MBEC,G. vaginalis biofilm; [7],0.5 to 2 µg/mL
same,MBEC,G. piotii biofilm; [8],8 µg/mL
same,MBEC,G. piotii biofilm; [9],2 to 8 µg/mL
